According to patent publication US11384130B2, “Agent for promoting angiogenesis and methods and uses thereof” (Vasomune Therapeutics Inc., priority 2017, dated 2022):

Legend:
Assay type in all cases: cell-based
Conditions in all cases: positive control
Tie2 receptor [1] = target: T1, Tie2 receptor (Rattus norvegicus, UniProt A0A8I5ZW61); test: Tie2 phosphorylation in primary rat glomerular endothelial cells
T1 construct: host or cells: primary rat glomerular endothelial cells
Description: Rat primary glomerular endothelial cells (Cell Biologics) were grown in Complete rat endothelial cell medium/w kit (Cell Biologics) in 20% O2, 5% CO2 and 37° C. humidified chamber and split 1:3 once reaching 80-90% confluency. To examine the activation of Tie2 by MPA-Br in rat kidney glomerular endothelial cells, 95-100% confluent cells were stimulated with indicated concentrations of the test agent in serum-containing media for 15 minutes. Human Ang-1 (R&D Systems) was used as positive control. Cell lysates were collected using lysis buffer IC12 (detailed above) recommended in Human phospho-Tie-2 ELISA kit (R&D Systems), tyrosine-phosphorylated Tie2 and total Tie2 were measured using ELISA (Human phospho-Tie2 and total-Tie2 ELISA kits, R&D Systems) with substitution of capture antibody validated for rat Tie2. Mouse anti-Tie2 antibody (BD Pharmingen™) and rabbit TEK polyclonal antibody (MyBioSource) were used as capture antibody in pTie2 and total Tie2 ELISA, respectively. The level of Tie2 phosphorylation for all treatment groups was then normalized to that of the no treatment group (NT, complete rat endothelial cell medium) in each experiment.

Tie2 receptor [2] = target: T2, Tie2 receptor (Canis lupus familiaris, UniProt A0A8I3P3D4); test: Tie2 phosphorylation in primary canine aortic endothelial cells
T2 construct: primary cultured endothelial cells derived from canine aorta; host or cells: primary canine aortic endothelial cells
Description: Canine primary aortic endothelial cells (Cell Biologics) were grown in Complete canine endothelial cell medium/w kit (Cell Biologics) in 20% O2, 5% CO2 and 37° C. humidified chamber and split 1:3 once reaching 80-90% confluency. Tie2 activation studies performed on primary cynomolgus monkey glomerular endothelial cells were performed according to approaches detailed above for the rat primary glomerular endothelial cell studies.

Tie2 receptor [3] = test: Tie2 phosphorylation in primary cynomolgus monkey glomerular endothelial cells
Description: Primary cynomolgus monkey glomerular endothelial cells (Cell Biologics) were cultured according to details provided above for HMVEC^tert. Tie2 activation studies performed on primary cynomolgus monkey glomerular endothelial cells were performed according to approaches detailed above for the rat primary glomerular endothelial cell studies.

T2 sequence (A0A8I3P3D4 entry or part of it): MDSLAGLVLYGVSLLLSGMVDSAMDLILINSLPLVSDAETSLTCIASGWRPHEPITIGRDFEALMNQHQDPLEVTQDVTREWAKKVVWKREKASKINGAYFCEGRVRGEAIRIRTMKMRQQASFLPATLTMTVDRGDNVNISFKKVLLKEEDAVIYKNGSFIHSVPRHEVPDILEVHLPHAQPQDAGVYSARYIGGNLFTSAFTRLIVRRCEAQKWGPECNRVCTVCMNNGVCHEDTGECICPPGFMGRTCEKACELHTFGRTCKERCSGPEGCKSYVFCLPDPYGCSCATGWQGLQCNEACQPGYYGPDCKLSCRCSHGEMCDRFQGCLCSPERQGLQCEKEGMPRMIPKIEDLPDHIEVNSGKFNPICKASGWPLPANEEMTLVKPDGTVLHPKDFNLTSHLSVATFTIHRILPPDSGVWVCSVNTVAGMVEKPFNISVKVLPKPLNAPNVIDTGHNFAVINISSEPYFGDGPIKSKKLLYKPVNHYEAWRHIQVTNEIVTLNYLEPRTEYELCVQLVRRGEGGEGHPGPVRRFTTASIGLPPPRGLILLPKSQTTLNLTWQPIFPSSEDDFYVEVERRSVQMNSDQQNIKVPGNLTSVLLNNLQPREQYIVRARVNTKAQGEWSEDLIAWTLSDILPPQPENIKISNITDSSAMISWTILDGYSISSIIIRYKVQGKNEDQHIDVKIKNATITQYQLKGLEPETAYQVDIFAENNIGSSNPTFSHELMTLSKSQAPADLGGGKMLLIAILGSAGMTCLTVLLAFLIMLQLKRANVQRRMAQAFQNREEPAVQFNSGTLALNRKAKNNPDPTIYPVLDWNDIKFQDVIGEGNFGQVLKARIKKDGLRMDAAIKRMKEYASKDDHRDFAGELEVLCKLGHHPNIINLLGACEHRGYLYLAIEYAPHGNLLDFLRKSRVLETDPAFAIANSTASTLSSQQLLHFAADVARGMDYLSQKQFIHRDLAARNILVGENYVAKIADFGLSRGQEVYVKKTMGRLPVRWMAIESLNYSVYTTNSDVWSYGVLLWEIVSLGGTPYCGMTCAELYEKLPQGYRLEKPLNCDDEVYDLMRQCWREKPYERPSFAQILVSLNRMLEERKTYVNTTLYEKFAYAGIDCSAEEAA
T1 sequence (A0A8I5ZW61 20-1121): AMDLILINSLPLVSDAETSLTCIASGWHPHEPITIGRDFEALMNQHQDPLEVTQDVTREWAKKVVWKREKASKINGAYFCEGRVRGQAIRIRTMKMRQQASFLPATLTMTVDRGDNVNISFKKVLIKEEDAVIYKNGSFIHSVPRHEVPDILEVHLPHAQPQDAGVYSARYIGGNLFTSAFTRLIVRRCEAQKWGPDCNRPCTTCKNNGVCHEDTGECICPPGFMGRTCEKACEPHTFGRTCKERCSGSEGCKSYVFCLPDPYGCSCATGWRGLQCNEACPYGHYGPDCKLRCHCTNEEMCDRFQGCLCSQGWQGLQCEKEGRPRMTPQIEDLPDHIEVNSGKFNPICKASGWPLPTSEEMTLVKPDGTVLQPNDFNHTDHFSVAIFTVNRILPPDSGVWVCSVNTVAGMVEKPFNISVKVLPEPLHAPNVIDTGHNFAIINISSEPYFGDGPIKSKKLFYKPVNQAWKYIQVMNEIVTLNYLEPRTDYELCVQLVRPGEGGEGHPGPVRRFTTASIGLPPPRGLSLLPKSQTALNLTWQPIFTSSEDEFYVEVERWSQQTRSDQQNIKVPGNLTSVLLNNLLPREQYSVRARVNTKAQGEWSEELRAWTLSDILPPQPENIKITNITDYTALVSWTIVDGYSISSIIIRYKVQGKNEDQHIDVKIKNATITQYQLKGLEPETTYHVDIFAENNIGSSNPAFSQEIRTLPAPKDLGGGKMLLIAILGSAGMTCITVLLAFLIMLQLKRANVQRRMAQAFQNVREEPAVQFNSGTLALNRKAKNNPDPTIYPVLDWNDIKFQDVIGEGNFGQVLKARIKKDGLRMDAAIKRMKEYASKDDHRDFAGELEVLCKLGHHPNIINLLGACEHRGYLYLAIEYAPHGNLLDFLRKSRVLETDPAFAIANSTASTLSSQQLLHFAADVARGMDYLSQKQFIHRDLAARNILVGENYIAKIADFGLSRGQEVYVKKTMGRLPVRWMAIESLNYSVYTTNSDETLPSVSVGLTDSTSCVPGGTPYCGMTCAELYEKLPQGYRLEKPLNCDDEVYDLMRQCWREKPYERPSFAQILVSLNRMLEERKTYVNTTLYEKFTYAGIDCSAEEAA

B1: human recombinant Ang1: human recombinant angiopoietin 1 (R&D Systems), positive control for Tie2 and MAPK activation (protein, UniProt Q15389 16-498, looked up)
Angiopoietin-1: HIGCSNQRRSPENSGRRYNRIQHGQCAYTFILPEHDGNCRESTTDQYNTNALQRDAPHVEPDFSSQKLQHLEHVMENYTQWLQKLENYIVENMKSEMAQIQQNAVQNHTATMLEIGTSLLSQTAEQTRKLTDVETQVLNQTSRLEIQLLENSLSTYKLEKQLLQQTNEILKIHEKNSLLEHKILEMEGKHKEELDTLKEEKENLQGLVTRQTYIIQELEKQLNRATTNNSVLQKQQLELMDTVHNLVNLCTKEGVLLKGGKREEEKPFRDCADVYQAGFNKSGIYTIYINNMPEPKKVFCNMDVNGGGWTVIQHREDGSLDFQRGWKEYKMGFGNPSGEYWLGNEFIFAITSQRQYMLRIELMDWEGNRAYSQYDRFHIGNEKQNYRLYLKGHTGTAGKQSSLILHGADFSTKDADNDNCMCKCALMLTGGWWFDACGPSNLNGMFYTAGQNHGKLNGIKWHYFKGPSYSLRSTTMMIRPLDF
- Tie2 phosphorylation compared to no treatment (Tie2 receptor [1]): significant increase in baseline Tie2 phosphorylation
- Tie2 phosphorylation compared to no treatment (Tie2 receptor [2]): significant increase in baseline Tie2 phosphorylation
- Tie2 phosphorylation compared to no treatment (Tie2 receptor [3]): significant increase in baseline Tie2 phosphorylation
